Measured values published in PMC10840515.
Where two headings read alike, the source gives them in different places.

How the values were obtained:
[1] = target: HLA-DR1 (HLA-DRA*0101, HLA-DRB1*0101) (human); test: ELISA
[2] = target: HLA-DR1 (HLA-DRA*0101, HLA-DRB1*0101) (human); test: ELISA; remark: listed apart in the source

With “SARS-CoV-2 Spike peptide S486-505 (Omicron BA.1)” the IC50 [1] was 0.754 µM.
Substance “SARS-CoV-2 Spike peptide S761-775 (Wuhan HU-1)” has an IC50 [2] of over 10 µM.
In the case of “SARS-CoV-2 Spike peptide S761-775 (Omicron BA.1)”, the IC50 [1] is reported as 6.78 µM.
